The values that follow come from the Human Domainome abundance scans (Beltran et al. 2025).

± gives the uncertainty stated by the source.

The chains are these.
B1: Dynamin-binding protein, residues 242 to 304; numbered along this chain, Q6XZF7 (parent)
chain: EEPGTYGVALYRFQALEPNELDFEVGDKIRILATLEDGWLEGSLKGRTGIFPYRFVKLCPDTR

The data set covers variants of B1. Briefly: abundance fitness (aPCA) (normalised: wild type 0, dead -1); higher = more abundant; growth selection in yeast, the domain comes from the species named. To be noted: Homo sapiens.
As for EEPGTYGVALYRFQALEPNELAFEVGDKIRILATLEDGWLEGSLKGRTGIFPYRFVKLCPDTR, the abundance fitness stood at 0.25 ± 0.058.
Next, EEPGTYGVALYRFQALEPNELTFEVGDKIRILATLEDGWLEGSLKGRTGIFPYRFVKLCPDTR: -0.054 ± 0.062; EEPGTYGVALYRFQALEPNELPFEVGDKIRILATLEDGWLEGSLKGRTGIFPYRFVKLCPDTR: 0.157 ± 0.074; EEPGTYGVALYRFQALEPNELQFEVGDKIRILATLEDGWLEGSLKGRTGIFPYRFVKLCPDTR: 0.148 ± 0.11.
The same measure for EEPGTYGVALYRFQALEPNELWFEVGDKIRILATLEDGWLEGSLKGRTGIFPYRFVKLCPDTR: -0.624 ± 0.18; for EEPGTYGVALYRFQALEPNELFFEVGDKIRILATLEDGWLEGSLKGRTGIFPYRFVKLCPDTR: -0.016 ± 0.059.
The same measure for EEPGTYGVALYRFQALEPNELRFEVGDKIRILATLEDGWLEGSLKGRTGIFPYRFVKLCPDTR: -0.185 ± 0.058; for EEPGTYGVALYRFQALEPNELVFEVGDKIRILATLEDGWLEGSLKGRTGIFPYRFVKLCPDTR: -0.682 ± 0.084.
For EEPGTYGVALYRFQALEPNELCFEVGDKIRILATLEDGWLEGSLKGRTGIFPYRFVKLCPDTR, the abundance fitness is -0.125 ± 0.052.
Next, EEPGTYGVALYRFQALEPNELNFEVGDKIRILATLEDGWLEGSLKGRTGIFPYRFVKLCPDTR: -0.04 ± 0.052; EEPGTYGVALYRFQALEPNELSFEVGDKIRILATLEDGWLEGSLKGRTGIFPYRFVKLCPDTR: 0.101 ± 0.046; EEPGTYGVALYRFQALEPNELGFEVGDKIRILATLEDGWLEGSLKGRTGIFPYRFVKLCPDTR: -0.02 ± 0.051.
Next, EEPGTYGVALYRFQALEPNELMFEVGDKIRILATLEDGWLEGSLKGRTGIFPYRFVKLCPDTR: -0.301 ± 0.13; EEPGTYGVALYRFQALEPNELKFEVGDKIRILATLEDGWLEGSLKGRTGIFPYRFVKLCPDTR: -0.062 ± 0.16.
The same measure for EEPGTYGVALYRFQALEPNELIFEVGDKIRILATLEDGWLEGSLKGRTGIFPYRFVKLCPDTR: -0.913 ± 0.11.
In the case of EEPGTYGVALYRFQALEPNELEFEVGDKIRILATLEDGWLEGSLKGRTGIFPYRFVKLCPDTR, the abundance fitness came to 0.043 ± 0.11.
The same measure for EEPGTYGVALYRFQALYPNELDFEVGDKIRILATLEDGWLEGSLKGRTGIFPYRFVKLCPDTR: -0.234 ± 0.066.
Next, EEPGTYGVALYRFQALEPNEPDFEVGDKIRILATLEDGWLEGSLKGRTGIFPYRFVKLCPDTR: -0.782 ± 0.19; EEPGTYGVALYRFQALEPNEGDFEVGDKIRILATLEDGWLEGSLKGRTGIFPYRFVKLCPDTR: -0.96 ± 0.13.
Next, EEPGTYGVALYRFQALEPNERDFEVGDKIRILATLEDGWLEGSLKGRTGIFPYRFVKLCPDTR: -0.839 ± 0.11; EEPGTYGVALYRFQALEPNEKDFEVGDKIRILATLEDGWLEGSLKGRTGIFPYRFVKLCPDTR: -0.744 ± 0.42; EEPGTYGVALYRFQALEPNEEDFEVGDKIRILATLEDGWLEGSLKGRTGIFPYRFVKLCPDTR: -0.643 ± 0.38.
As to EEPGTYGVALYRFQALEPNENDFEVGDKIRILATLEDGWLEGSLKGRTGIFPYRFVKLCPDTR, the abundance fitness was -0.843 ± 0.28.
The same measure for EEPGTYGVALYRFQALEPNETDFEVGDKIRILATLEDGWLEGSLKGRTGIFPYRFVKLCPDTR: -0.522 ± 0.09; for EEPGTYGVALYRFQALEPNEMDFEVGDKIRILATLEDGWLEGSLKGRTGIFPYRFVKLCPDTR: -0.852 ± 0.32.
The same measure for EEPGTYGVALYRFQALEPNEDDFEVGDKIRILATLEDGWLEGSLKGRTGIFPYRFVKLCPDTR: -1.03 ± 0.39; for EEPGTYGVALYRFQALEPNEYDFEVGDKIRILATLEDGWLEGSLKGRTGIFPYRFVKLCPDTR: -1.03 ± 0.26.
The same measure for EEPGTYGVALYRFQALEPNEQDFEVGDKIRILATLEDGWLEGSLKGRTGIFPYRFVKLCPDTR: -0.455 ± 0.2; for EEPGTYGVALYRFQALEPNEADFEVGDKIRILATLEDGWLEGSLKGRTGIFPYRFVKLCPDTR: -1.01 ± 0.17.
As for EEPGTYGVALYRFQALEPNESDFEVGDKIRILATLEDGWLEGSLKGRTGIFPYRFVKLCPDTR, the abundance fitness is -0.542 ± 0.078.
Next, EEPGTYGVALYRFQALEPNECDFEVGDKIRILATLEDGWLEGSLKGRTGIFPYRFVKLCPDTR: -0.851 ± 0.1; EEPGTYGVALYRFQALEPNEIDFEVGDKIRILATLEDGWLEGSLKGRTGIFPYRFVKLCPDTR: -0.636 ± 0.19.
The same measure for EEPGTYGVALYRFQALEPNEVDFEVGDKIRILATLEDGWLEGSLKGRTGIFPYRFVKLCPDTR: -0.619 ± 0.097; for EEPGTYGVALYRFQALEPNEFDFEVGDKIRILATLEDGWLEGSLKGRTGIFPYRFVKLCPDTR: -0.771 ± 0.091.
Next, EEPGTYGVALYRFQALEPNEHDFEVGDKIRILATLEDGWLEGSLKGRTGIFPYRFVKLCPDTR: -0.469 ± 0.13; EEPGTYGVALYRFQALEPAELDFEVGDKIRILATLEDGWLEGSLKGRTGIFPYRFVKLCPDTR: -0.18 ± 0.06.
Regarding EEPGTYGVALYRFQALEPRELDFEVGDKIRILATLEDGWLEGSLKGRTGIFPYRFVKLCPDTR, the abundance fitness was -0.167 ± 0.069.
Take EEPGTYGVALYRFQALEPTELDFEVGDKIRILATLEDGWLEGSLKGRTGIFPYRFVKLCPDTR: the abundance fitness is -0.223 ± 0.076.
Next, EEPGTYGVALYRFQALEPFELDFEVGDKIRILATLEDGWLEGSLKGRTGIFPYRFVKLCPDTR: -0.297 ± 0.061; EEPGTYGVALYRFQALEPLELDFEVGDKIRILATLEDGWLEGSLKGRTGIFPYRFVKLCPDTR: -0.52 ± 0.086.
Next, EEPGTYGVALYRFQALEPVELDFEVGDKIRILATLEDGWLEGSLKGRTGIFPYRFVKLCPDTR: -0.563 ± 0.068; EEPGTYGVALYRFQALEPSELDFEVGDKIRILATLEDGWLEGSLKGRTGIFPYRFVKLCPDTR: -0.275 ± 0.05.
